Reference: PMC10786891, “Massively parallel profiling of RNA-targeting CRISPR-Cas13d”

T1: EsCas13d, nuclease-dead (Eubacterium siraeum, UniProt B0MS50, R295A;H300A;R849A;H854A)
T1 sequence: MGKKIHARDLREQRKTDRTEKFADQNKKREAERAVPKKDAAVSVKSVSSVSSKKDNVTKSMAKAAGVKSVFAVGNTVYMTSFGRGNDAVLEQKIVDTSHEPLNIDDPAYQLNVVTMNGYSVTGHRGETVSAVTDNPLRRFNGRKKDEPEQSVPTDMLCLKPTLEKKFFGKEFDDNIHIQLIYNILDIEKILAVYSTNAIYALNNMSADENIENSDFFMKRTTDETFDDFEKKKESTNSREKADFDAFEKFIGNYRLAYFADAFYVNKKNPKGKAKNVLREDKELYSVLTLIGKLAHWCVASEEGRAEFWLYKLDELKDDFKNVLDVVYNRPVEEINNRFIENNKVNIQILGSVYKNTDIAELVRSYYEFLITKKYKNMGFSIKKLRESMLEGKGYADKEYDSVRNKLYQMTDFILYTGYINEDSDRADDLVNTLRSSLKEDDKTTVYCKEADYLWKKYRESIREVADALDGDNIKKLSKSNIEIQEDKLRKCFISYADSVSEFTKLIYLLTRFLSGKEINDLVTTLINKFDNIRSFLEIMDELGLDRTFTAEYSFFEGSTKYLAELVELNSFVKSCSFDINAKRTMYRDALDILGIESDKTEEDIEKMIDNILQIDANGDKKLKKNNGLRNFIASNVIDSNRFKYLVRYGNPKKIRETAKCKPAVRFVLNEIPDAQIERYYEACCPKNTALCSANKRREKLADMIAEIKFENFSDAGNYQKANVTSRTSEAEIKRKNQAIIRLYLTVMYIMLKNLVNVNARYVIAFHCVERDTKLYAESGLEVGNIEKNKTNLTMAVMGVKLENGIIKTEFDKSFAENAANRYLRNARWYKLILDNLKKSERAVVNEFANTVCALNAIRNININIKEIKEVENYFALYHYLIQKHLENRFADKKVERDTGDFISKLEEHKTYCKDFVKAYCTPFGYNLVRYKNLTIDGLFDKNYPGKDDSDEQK


molecular target: T1, EsCas13d, nuclease-dead; assay: crRNA (strand 1, pre-loaded); Mg2+; 40 mM Tris-HCl pH 7.5, 150 mM NaCl, 6 mM MgCl2, 1 mM DTT, 0.1% Tween-20, 0.2 mg/ml BSA; 25 C; 10 min per concentration, then washed; settings: tags: His6-TwinStrep-SUMO cleaved; N-terminal SNAP kept (SNAP-Surface 488); label: 3' end held by stalled T7 RNA polymerase

Row | Binder | Kd [nM]
1 | target 2 MT 5'PFS GUC 3'PFS UGA (mixed) RNA 1: CACCCGUGCAAAAUUGCAGGGGUCUAAAACCUUCUCCAAAUUGUUUCAUCCU RNA 2: GGGAAUGGAUCCACAUCUACGAAUUCGUCAGGAUGAAACAAUUUGGAGAAGUGAAGAUCGGAAGAGCACACGU | 17.4 ± 2.6
2 | target 2 MT 5'PFS CGA 3'PFS UUC (mixed) RNA 1: CACCCGUGCAAAAUUGCAGGGGUCUAAAACCUUCUCCAAAUUGUUUCAUCCU RNA 2: GGGAAUGGAUCCACAUCUACGAAUUCCGAAGGAUGAAACAAUUUGGAGAAGUUCAGAUCGGAAGAGCACACGU | 11.5 ± 1.9
3 | target 2 MT 5'PFS GAC 3'PFS ACG (mixed) RNA 1: CACCCGUGCAAAAUUGCAGGGGUCUAAAACCUUCUCCAAAUUGUUUCAUCCU RNA 2: GGGAAUGGAUCCACAUCUACGAAUUCGACAGGAUGAAACAAUUUGGAGAAGACGAGAUCGGAAGAGCACACGU | 13.6 ± 2.1
4 | target 2 MT 5'PFS AAC 3'PFS UAU (mixed) RNA 1: CACCCGUGCAAAAUUGCAGGGGUCUAAAACCUUCUCCAAAUUGUUUCAUCCU RNA 2: GGGAAUGGAUCCACAUCUACGAAUUCAACAGGAUGAAACAAUUUGGAGAAGUAUAGAUCGGAAGAGCACACGU | 5.4 ± 0.8
5 | target 2 MT 5'PFS GAC 3'PFS ACC (mixed) RNA 1: CACCCGUGCAAAAUUGCAGGGGUCUAAAACCUUCUCCAAAUUGUUUCAUCCU RNA 2: GGGAAUGGAUCCACAUCUACGAAUUCGACAGGAUGAAACAAUUUGGAGAAGACCAGAUCGGAAGAGCACACGU | 14.7 ± 2.3
6 | target 2 MT 5'PFS GGU 3'PFS CGC (mixed) RNA 1: CACCCGUGCAAAAUUGCAGGGGUCUAAAACCUUCUCCAAAUUGUUUCAUCCU RNA 2: GGGAAUGGAUCCACAUCUACGAAUUCGGUAGGAUGAAACAAUUUGGAGAAGCGCAGAUCGGAAGAGCACACGU | 15.1 ± 1.4
7 | target 2 MT 5'PFS GGC 3'PFS UUC (mixed) RNA 1: CACCCGUGCAAAAUUGCAGGGGUCUAAAACCUUCUCCAAAUUGUUUCAUCCU RNA 2: GGGAAUGGAUCCACAUCUACGAAUUCGGCAGGAUGAAACAAUUUGGAGAAGUUCAGAUCGGAAGAGCACACGU | 18.8 ± 2.3
8 | target 2 MT 5'PFS UAG 3'PFS CGC (mixed) RNA 1: CACCCGUGCAAAAUUGCAGGGGUCUAAAACCUUCUCCAAAUUGUUUCAUCCU RNA 2: GGGAAUGGAUCCACAUCUACGAAUUCUAGAGGAUGAAACAAUUUGGAGAAGCGCAGAUCGGAAGAGCACACGU | 2.36 ± 0.26
9 | target 2 MT 5'PFS AAC 3'PFS UAA (mixed) RNA 1: CACCCGUGCAAAAUUGCAGGGGUCUAAAACCUUCUCCAAAUUGUUUCAUCCU RNA 2: GGGAAUGGAUCCACAUCUACGAAUUCAACAGGAUGAAACAAUUUGGAGAAGUAAAGAUCGGAAGAGCACACGU | 7.4 ± 2.6
10 | target 2 MT 5'PFS AAC 3'PFS ACU (mixed) RNA 1: CACCCGUGCAAAAUUGCAGGGGUCUAAAACCUUCUCCAAAUUGUUUCAUCCU RNA 2: GGGAAUGGAUCCACAUCUACGAAUUCAACAGGAUGAAACAAUUUGGAGAAGACUAGAUCGGAAGAGCACACGU | 9.1 ± 3.1
11 | target 2 MT 5'PFS AAC 3'PFS UAC (mixed) RNA 1: CACCCGUGCAAAAUUGCAGGGGUCUAAAACCUUCUCCAAAUUGUUUCAUCCU RNA 2: GGGAAUGGAUCCACAUCUACGAAUUCAACAGGAUGAAACAAUUUGGAGAAGUACAGAUCGGAAGAGCACACGU | 5.2 ± 1.2
12 | target 2 MT 5'PFS AAC 3'PFS UAG (mixed) RNA 1: CACCCGUGCAAAAUUGCAGGGGUCUAAAACCUUCUCCAAAUUGUUUCAUCCU RNA 2: GGGAAUGGAUCCACAUCUACGAAUUCAACAGGAUGAAACAAUUUGGAGAAGUAGAGAUCGGAAGAGCACACGU | 6.8 ± 1.6
13 | target 2 MT 5'PFS GGU 3'PFS CGA (mixed) RNA 1: CACCCGUGCAAAAUUGCAGGGGUCUAAAACCUUCUCCAAAUUGUUUCAUCCU RNA 2: GGGAAUGGAUCCACAUCUACGAAUUCGGUAGGAUGAAACAAUUUGGAGAAGCGAAGAUCGGAAGAGCACACGU | 15.4 ± 2.1
14 | target 2 MT 5'PFS AAC 3'PFS ACC (mixed) RNA 1: CACCCGUGCAAAAUUGCAGGGGUCUAAAACCUUCUCCAAAUUGUUUCAUCCU RNA 2: GGGAAUGGAUCCACAUCUACGAAUUCAACAGGAUGAAACAAUUUGGAGAAGACCAGAUCGGAAGAGCACACGU | 7 ± 2.4
15 | target 2 MT 5'PFS GGU 3'PFS CGU (mixed) RNA 1: CACCCGUGCAAAAUUGCAGGGGUCUAAAACCUUCUCCAAAUUGUUUCAUCCU RNA 2: GGGAAUGGAUCCACAUCUACGAAUUCGGUAGGAUGAAACAAUUUGGAGAAGCGUAGAUCGGAAGAGCACACGU | 22.3 ± 2.6
16 | target 2 MT 5'PFS AAC 3'PFS ACG (mixed) RNA 1: CACCCGUGCAAAAUUGCAGGGGUCUAAAACCUUCUCCAAAUUGUUUCAUCCU RNA 2: GGGAAUGGAUCCACAUCUACGAAUUCAACAGGAUGAAACAAUUUGGAGAAGACGAGAUCGGAAGAGCACACGU | 6.1 ± 1.6
17 | target 2 MT 5'PFS GGU 3'PFS CGG (mixed) RNA 1: CACCCGUGCAAAAUUGCAGGGGUCUAAAACCUUCUCCAAAUUGUUUCAUCCU RNA 2: GGGAAUGGAUCCACAUCUACGAAUUCGGUAGGAUGAAACAAUUUGGAGAAGCGGAGAUCGGAAGAGCACACGU | 15.6 ± 1.4
18 | target 2 MT 5'PFS ACU 3'PFS CUU (mixed) RNA 1: CACCCGUGCAAAAUUGCAGGGGUCUAAAACCUUCUCCAAAUUGUUUCAUCCU RNA 2: GGGAAUGGAUCCACAUCUACGAAUUCACUAGGAUGAAACAAUUUGGAGAAGCUUAGAUCGGAAGAGCACACGU | 6.2 ± 0.6
19 | target 2 MT 5'PFS AUU 3'PFS CAA (mixed) RNA 1: CACCCGUGCAAAAUUGCAGGGGUCUAAAACCUUCUCCAAAUUGUUUCAUCCU RNA 2: GGGAAUGGAUCCACAUCUACGAAUUCAUUAGGAUGAAACAAUUUGGAGAAGCAAAGAUCGGAAGAGCACACGU | 5 ± 0.6
20 | target 2 MT 5'PFS GGC 3'PFS UUA (mixed) RNA 1: CACCCGUGCAAAAUUGCAGGGGUCUAAAACCUUCUCCAAAUUGUUUCAUCCU RNA 2: GGGAAUGGAUCCACAUCUACGAAUUCGGCAGGAUGAAACAAUUUGGAGAAGUUAAGAUCGGAAGAGCACACGU | 15.2 ± 1.8
21 | target 2 MT 5'PFS GAC 3'PFS ACU (mixed) RNA 1: CACCCGUGCAAAAUUGCAGGGGUCUAAAACCUUCUCCAAAUUGUUUCAUCCU RNA 2: GGGAAUGGAUCCACAUCUACGAAUUCGACAGGAUGAAACAAUUUGGAGAAGACUAGAUCGGAAGAGCACACGU | 30 ± 10
22 | target 2 MT 5'PFS GAC 3'PFS ACA (mixed) RNA 1: CACCCGUGCAAAAUUGCAGGGGUCUAAAACCUUCUCCAAAUUGUUUCAUCCU RNA 2: GGGAAUGGAUCCACAUCUACGAAUUCGACAGGAUGAAACAAUUUGGAGAAGACAAGAUCGGAAGAGCACACGU | 12.9 ± 2.6
23 | target 1 insG 3' of 4,insG 3' of 1 (mixed) RNA 1: CACCCGUGCAAAAAUGCAGGGGUCUAAAACUGAGCGGAUAACCUCUCUAUGG RNA 2: GGGAAUGGAUCCACAUCUACGAAUUCGUACCAUAGAGAGGUUAUCCGCGUCAGCCGAGAUCGGAAGAGCACACGU | 6 ± 0.4
24 | target 1 U8G,A14G (mixed) RNA 1: CACCCGUGCAAAAAUGCAGGGGUCUAAAACUGAGCGGAUAACCUCUCUAUGG RNA 2: GGGAAUGGAUCCACAUCUACGAAUUCGUACCAUAGAGGGGUUAGCCGCUCACCGAGAUCGGAAGAGCACACGU | 22.9 ± 1.2
